The text below walks through data of article PMC4682967.

For data set [1], the system named is scFv-Fc_(CH3A) of A107 and A108 (K370E/K409W). Briefly: non-reducing SDS-PAGE of coexpressed chains; scFv-Fc_(CH3A) and Fc_(CH3B) cotransfected at equivalent molar ratio in HEK293F, Protein A purified from supernatant after 6 days; heterodimer and homodimers told apart by mass, band intensities by ImageJ. Conditions: other: non-reducing SDS-PAGE of coexpressed chains.

The test system of data set [2] is scFv-Fc_(CH3A) of A216 (E357G/S364W/K370E). The data set is described as above. Conditions: other: non-reducing SDS-PAGE of coexpressed chains.
Data set [3] has as its system scFv-Fc_(CH3A) of A241 (E357N/S364W/K370E). The data set is described as above. Conditions: other: non-reducing SDS-PAGE of coexpressed chains.
The subject of data set [4] is scFv-Fc_(CH3A) of A107_(w/o W-VT) (K370E). The description is as above. The conditions noted are these: other: non-reducing SDS-PAGE of coexpressed chains.
In data set [5] the test system is scFv-Fc_(CH3A) of A109 (K370M/K409W). Described as above. Conditions: other: non-reducing SDS-PAGE of coexpressed chains.
For data set [6], the system named is scFv-Fc_(CH3A) of A109_(w/o W-VT) (K370M). The data set is described as above. Conditions: other: non-reducing SDS-PAGE of coexpressed chains.
Data set [7] relates to scFv-Fc_(CH3A) of A146 (K370D/K409W). The data set is described as above. The conditions noted are these: other: non-reducing SDS-PAGE of coexpressed chains.
Data set [8] deals with scFv-Fc_(CH3A) of A146_(w/o W-VT) (K370D). Described as above. Conditions: other: non-reducing SDS-PAGE of coexpressed chains.
In data set [9] the test system is scFv-Fc_(CH3A) of A205 (E357D/S364W/K370E). The description is as above. Conditions: other: non-reducing SDS-PAGE of coexpressed chains.
Data set [10] deals with scFv-Fc_(CH3A) of A210 (E357A/S364Y/K370E). The data set is described as above. The conditions noted are these: other: non-reducing SDS-PAGE of coexpressed chains.
For data set [11], the system named is scFv-Fc_(CH3A) of B121 (D399E/K409W). The description is as above. Conditions: other: non-reducing SDS-PAGE of coexpressed chains.
The test system of data set [12] is scFv-Fc_(CH3A) of B135 and B168 (D399L/K409W). The data set is described as above. The conditions noted are these: other: non-reducing SDS-PAGE of coexpressed chains.
In data set [13] the test system is scFv-Fc_(CH3A) of B168_(w/o W-VT) (D399L). The data set is described as above. Conditions: other: non-reducing SDS-PAGE of coexpressed chains.
In data set [14] the test system is scFv-Fc_(CH3A) of B212 (K392I/D399L). Described as above. The conditions noted are these: other: non-reducing SDS-PAGE of coexpressed chains.
For data set [15], the system named is scFv-Fc_(CH3A) of B240 (K392S/K409R/D399L). The data set is described as above. Conditions: other: non-reducing SDS-PAGE of coexpressed chains.
The test system of data set [16] is scFv-Fc_(CH3A) of B215 (K392R/K409R/D399L). The description is as above. The conditions noted are these: other: non-reducing SDS-PAGE of coexpressed chains.
Data set [17] has as its system scFv-Fc_(CH3A) of B235 (K392C/D399L). Described as above. The conditions noted are these: other: non-reducing SDS-PAGE of coexpressed chains.
Data set [18] concerns scFv-Fc_(CH3A) of B239 (K392L/D399L). The data set is described as above. The conditions noted are these: other: non-reducing SDS-PAGE of coexpressed chains.
For data set [19], the system named is scFv-Fc_(CH3A) of B256 (K392N/D399L). Described as above. The conditions noted are these: other: non-reducing SDS-PAGE of coexpressed chains.
For data set [20], the system named is scFv-Fc_(CH3A) of W-VT (K409W). The description is as above. Conditions: other: non-reducing SDS-PAGE of coexpressed chains.
Data set [21] has as its target human neonatal Fc receptor (FcRn) (human) (UniProt P55899). Briefly: SPR; human FcRn coated on the chip at approximately 1,000 response units; serially diluted Fc proteins applied; pH 6.0; mean ± SD of two independent experiments, at least 5 data sets each. In general terms: SPR reads the build-up and loss of mass on a sensor chip optically.

Take Fc_(CH3B) of A107 (E357N/D399V/F405T): in [1], the heterodimer yield (%) was 93.4%. With “Fc_(CH3B) of A107_(w/o W-VT), A216 and A241 (E357N)”, the heterodimer yield (%) in [2] stood at 80.3%; in data set [3] it was 81%; in data set [4], 78.2%.

Take “Fc_(CH3B) of A108 (E357I/S364T/D399V/F405T)”: the heterodimer yield (%) in [1] stood at 70.5%. Regarding “Fc_(CH3B) of A109 (E357M/S364W/D399V/F405T)”, in data set [5], the heterodimer yield (%) was 90.5%. In the case of “Fc_(CH3B) of A109_(w/o W-VT) (E357M/S364W)”, in [6], the heterodimer yield (%) came to 61.6%.

In the case of Fc_(CH3B) of A146 (E357M/D399V/F405T), in data set [7], the heterodimer yield (%) was found to be 74.5%. Regarding Fc_(CH3B) of A146_(w/o W-VT) (E357M), the heterodimer yield (%) in data set [8] stood at 71%. For Fc_(CH3B) of A205 (E357N/K370R), the heterodimer yield (%) in data set [9] was found to be 88.8%. As for Fc_(CH3B) of A210 (E357N/K370H), the heterodimer yield (%) in data set [10] was found to be 80.8%. Regarding Fc_(CH3B) of B121 (K392E/D399V/F405T), in data set [11], the heterodimer yield (%) amounted to 73.3%. “Fc_(CH3B) of B135 (K392S/K409L/D399V/F405T)”: the heterodimer yield (%) in [12] turned out to be 67.8%.

With “Fc_(CH3B) of B168 (K392G/K409M/D399V/F405T)”, in data set [12], the heterodimer yield (%) was determined as 77.7%. With “Fc_(CH3B) of B168_(w/o W-VT) (K392G/K409M)”, in data set [13], the heterodimer yield (%) worked out at 60.9%. Consider “Fc_(CH3B) of B212 and B240 (D399G/K392G/K409M)”, for which the heterodimer yield (%) was found to be 65.3% in data set [14] and 83.3% in [15]. Fc_(CH3B) of B215 (D399W/K392G/K409M): the heterodimer yield (%) in data set [16] was determined as 78.1%. On to Fc_(CH3B) of B235 (D399C/K392G/K409M), for which the heterodimer yield (%) in data set [17] came out at 89.4%. Consider Fc_(CH3B) of B239 (D399S/K392G/K409M), for which the heterodimer yield (%) in data set [18] amounted to 76.3%.

On to Fc_(CH3B) of B256 (D399V/K392G/K409M), for which, in data set [19], the heterodimer yield (%) is 79.4%. With Fc_(CH3B) of W-VT (D399V/F405T), the heterodimer yield (%) in data set [20] was 60.8%. “wild-type human IgG1 Fc homodimer (Fc-WT) (domain or fragment)”: in data set [21], the Kd stood at 35.6 nM, the off-rate constant (koff) amounted to 5.83e-05 s⁻¹ and the kon was 1640 M⁻¹ s⁻¹.

One may read the Kd as the free concentration of one partner at which half of the binding sites on the other are occupied at equilibrium, for simple one-to-one binding. Higher therefore signals weaker binding. One may read the koff as the first-order rate constant of dissociation. Low values mean a long-lived complex, high ones a short-lived complex. Usually kon stands for a measure of how fast the partners come together. Read a high kon as faster complex formation.
